± gives the uncertainty stated by the source.
B1: Tyrosine-protein kinase BTK, residues 215 to 273; numbered along this chain, Q06187 (parent)
chain: ELKKVVALYDYMPMNANDLQLRKGDEYFILEESNLPWWRARDKNGQEGYIPSNYVTEAE

Variants of: B1
Test: abundance fitness (aPCA) (normalised: wild type 0, dead -1); higher = more abundant; growth selection in yeast, the domain comes from the species named
Settings: Homo sapiens

Abundance fitness: each site, then its substitutions
A16: R -0.055 ± 0.028, E 0.013 ± 0.042, V -0.046 ± 0.03, Q 0.016 ± 0.04, W -0.105 ± 0.037, M -0.141 ± 0.042, P -0.093 ± 0.043, I -0.229 ± 0.058, K -0.068 ± 0.044, T -0.031 ± 0.039, Y -0.17 ± 0.06, L -0.083 ± 0.027, N -0.045 ± 0.055, D 0.044 ± 0.051, H -0.026 ± 0.074, F -0.18 ± 0.053, S -0.042 ± 0.031, C -0.063 ± 0.054
G24: Q -0.302 ± 0.048, F -0.156 ± 0.058, P -0.748 ± 0.092, V -0.987 ± 0.056, H -0.178 ± 0.11, W -0.34 ± 0.057, N -0.096 ± 0.093, T -0.395 ± 0.053, S -0.226 ± 0.04, L -0.382 ± 0.035, E -0.276 ± 0.048, C -0.472 ± 0.087, I -0.799 ± 0.11, Y -0.193 ± 0.062, A -0.252 ± 0.039, K -0.302 ± 0.065, D -0.09 ± 0.052, M -0.223 ± 0.045
E26: C -0.084 ± 0.061, K -0.01 ± 0.056, N -0.098 ± 0.05, G -0.191 ± 0.042, D -0.061 ± 0.078, Y -0.082 ± 0.058, W -0.037 ± 0.047, H -0.134 ± 0.099, P -0.041 ± 0.051, R -0.068 ± 0.038, V -0.032 ± 0.041, A -0.075 ± 0.046, L -0.01 ± 0.036, S 0 ± 0.037, Q -0.079 ± 0.061, F -0.024 ± 0.054, T 0.011 ± 0.052, I -0.013 ± 0.051
P13: N -0.275 ± 0.1, R -0.153 ± 0.036, C -0.235 ± 0.056, Y -0.774 ± 0.1, G -0.068 ± 0.041, M -0.406 ± 0.077, F -1.08 ± 0.27, K -0.119 ± 0.066, I -0.193 ± 0.16, Q -0.296 ± 0.076, E -0.343 ± 0.06, A -0.082 ± 0.046, H -0.51 ± 0.11, S -0.081 ± 0.041, L -0.734 ± 0.048, W -0.778 ± 0.073, D -0.458 ± 0.095
D18: A -0.017 ± 0.041, N 0.009 ± 0.057, R 0.004 ± 0.031, Y 0.025 ± 0.051, Q 0.018 ± 0.043, T -0.034 ± 0.043, K -0.048 ± 0.044, P -0.469 ± 0.051, W -0.07 ± 0.033, G -0.038 ± 0.037, F -0.04 ± 0.067, I -0.033 ± 0.077, V -0.061 ± 0.038, S -0.051 ± 0.036, H 0.146 ± 0.065, E 0.05 ± 0.039, L -0.073 ± 0.032
L30: K -0.076 ± 0.044, N -0.346 ± 0.08, D -0.397 ± 0.12, E -0.104 ± 0.055, G -0.398 ± 0.046, R -0.223 ± 0.031, P -0.365 ± 0.052, T -0.03 ± 0.053, A -0.12 ± 0.05, Q -0.159 ± 0.052, M -0.087 ± 0.052, C -0.207 ± 0.061, V -0.015 ± 0.047, Y -0.056 ± 0.061, I -0.026 ± 0.056, F -0.038 ± 0.061, S -0.175 ± 0.038, W -0.147 ± 0.036
M12: N -0.007 ± 0.067, Y -0.018 ± 0.069, W -0.07 ± 0.039, Q -0.009 ± 0.055, K 0.065 ± 0.051, R -0.002 ± 0.029, P -0.008 ± 0.048, S 0.007 ± 0.037, V -0.022 ± 0.039, L 0.016 ± 0.032, T 0.016 ± 0.051
L19: E -0.888 ± 0.081, I -0.124 ± 0.067, D -0.936 ± 0.086, Y -0.66 ± 0.059, F -0.391 ± 0.067, G -0.851 ± 0.045, H -0.703 ± 0.093, S -0.695 ± 0.042, A -0.796 ± 0.056, R -0.792 ± 0.042, C -0.444 ± 0.058, T -0.75 ± 0.046, Q -0.711 ± 0.059, V -0.314 ± 0.034, P -0.515 ± 0.055, M -0.105 ± 0.041, N -0.701 ± 0.1
F28: E 0.002 ± 0.055, K -0.141 ± 0.06, A -0.055 ± 0.041, W 0.032 ± 0.049, L -0.004 ± 0.038, P -0.631 ± 0.1, Q -0.069 ± 0.079, D -0.018 ± 0.064, C -0.096 ± 0.055, M 0.017 ± 0.054, H -0.07 ± 0.13, Y -0.068 ± 0.063, G -0.049 ± 0.041, I -0.021 ± 0.052, N -0.077 ± 0.069, T -0.02 ± 0.045, S -0.019 ± 0.039, R -0.012 ± 0.047, V -0.009 ± 0.035
M14: L -0.018 ± 0.03, C -0.08 ± 0.059, Q 0.038 ± 0.064, K -0.007 ± 0.059, S -0.001 ± 0.031, I -0.049 ± 0.049, H 0.068 ± 0.1, W -0.129 ± 0.042, T -0.028 ± 0.04, N 0.059 ± 0.062, A 0.051 ± 0.039, V 0.026 ± 0.032, D -0.013 ± 0.076, F 0.022 ± 0.044

Reference: the Human Domainome abundance scans (Beltran et al. 2025)
